± gives the standard deviation.
Assay: protein stability index of a GFP-peptide fusion (GPS, HEK-293T) (PSI 1-6); higher = more stable
Details: c terminus: a fixed tail appended
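Also: 24-mer peptide tiles fused after GFP, lentivirally expressed, FACS-sorted into six equal bins by GFP/DsRed ratio, decoded by Illumina sequencing, PSI is the read-weighted mean bin number.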

Sequence: PISQEKIESERALISQCGKPVVNV [DUSP5]
- protein stability index (treatment: DMSO): 4.04 ± 0.55
- protein stability index (treatment: MLN4924 1 uM, 8 h): 3.91 ± 0.23

Sequence: NAKTEQGPTGVTMTSNPITWGQIK [CDK11A]
- protein stability index (treatment: DMSO): 4.19 ± 0.16
- protein stability index (treatment: MLN4924 1 uM, 8 h): 4.12 ± 0.24

Sequence: TLLLQGHHDKVQSLCYLQLTRQLV [WDFY1]
- protein stability index (treatment: DMSO): 2.8 ± 0.43
- protein stability index (treatment: MLN4924 1 uM, 8 h): 2.76 ± 0.38

Sequence: TNDVETARCTAGTLHNLSHHREGL [CTNNB1]
- protein stability index (treatment: DMSO): 3.89 ± 0.19
- protein stability index (treatment: MLN4924 1 uM, 8 h): 4.07 ± 0.18

Sequence: SGGHERSRDRRRSSDRSRDSSHER [BTBD10]
- protein stability index (treatment: DMSO): 5.48 ± 0.18
- protein stability index (treatment: MLN4924 1 uM, 8 h): 5.59 ± 0.19

Sequence: EDGPGKEEAPELDEAELDYLMDVL [SERTAD1]
- protein stability index (treatment: DMSO): 5.08 ± 0.12
- protein stability index (treatment: MLN4924 1 uM, 8 h): 5.01 ± 0.21

Sequence: FNDVAKFLKQGDSADETTAHKTEE [CMTM3]
- protein stability index (treatment: DMSO): 4.97 ± 0.23
- protein stability index (treatment: MLN4924 1 uM, 8 h): 5.13 ± 0.12

Sequence: FRSGALDLDSCSRDGALLGCSLTA [MYORG]
- protein stability index (treatment: DMSO): 2.58 ± 0.12
- protein stability index (treatment: MLN4924 1 uM, 8 h): 2.34 ± 0.32

Sequence: CCRACSVSFSTGAGGWSNHHFCVI [BET1L]
- protein stability index (treatment: DMSO): 2.42 ± 0.26
- protein stability index (treatment: MLN4924 1 uM, 8 h): 2.35 ± 0.33

Sequence: GKPGDRNCPEFPPPDRTLGCWATD [RSPH3]
- protein stability index (treatment: DMSO): 4.03 ± 0.28
- protein stability index (treatment: MLN4924 1 uM, 8 h): 4.32 ± 0.24

Sequence: ICELVMALDYLQNQRIIHRDMKPD [STK32A]
- protein stability index (treatment: DMSO): 2.62 ± 0.64
- protein stability index (treatment: MLN4924 1 uM, 8 h): 2.44 ± 0.5

Sequence: SQSSYLSQHRRIHSGEKPFICKEC [ZNF232]
- protein stability index (treatment: DMSO): 3.36 ± 0.33
- protein stability index (treatment: MLN4924 1 uM, 8 h): 3.67 ± 0.44

Sequence: HLESKDINQEELRALEEVEMKLQK [C10orf62]
- protein stability index (treatment: DMSO): 5.31 ± 0.32
- protein stability index (treatment: MLN4924 1 uM, 8 h): 5.34 ± 0.24

Sequence: WESSAGGSFTVRADHGEPIGRGTK [HSP90AB1]
- protein stability index (treatment: DMSO): 4.83 ± 0.28
- protein stability index (treatment: MLN4924 1 uM, 8 h): 4.79 ± 0.55

Sequence: PKNPALEAFLAQFSQLEDKFPGQS [TOR1AIP2]
- protein stability index (treatment: DMSO): 3.43 ± 0.1
- protein stability index (treatment: MLN4924 1 uM, 8 h): 3.64 ± 0.15

Sequence: LPGAVATIVKPLSAIPQPTITKQE [HNF4A]
- protein stability index (treatment: DMSO): 4.51 ± 0.24
- protein stability index (treatment: MLN4924 1 uM, 8 h): 4.54 ± 0.17

Sequence: QELEEEIKELYENFCKHNGSKNVF [ATL3]
- protein stability index (treatment: DMSO): 3.02 ± 0.32
- protein stability index (treatment: MLN4924 1 uM, 8 h): 3.57 ± 0.48

Sequence: KALTTLCDLADRELVVIIGWAKHI [ESRRG]
- protein stability index (treatment: DMSO): 2.83 ± 0.38
- protein stability index (treatment: MLN4924 1 uM, 8 h): 2.79 ± 0.62

Sequence: LYLVGFLDLFGVSMVVPLLSLHVK [MFSD9]
- protein stability index (treatment: DMSO): 3.61 ± 0.17
- protein stability index (treatment: MLN4924 1 uM, 8 h): 3.19 ± 0.33

Sequence: QHYFYDYDCGEDFYRSTAPSEDIW [MYCL]
- protein stability index (treatment: DMSO): 2.63 ± 0.49
- protein stability index (treatment: MLN4924 1 uM, 8 h): 2.59 ± 0.33

Sequence: GVGTSMEGASPLSERCQRQLQSLC [FANCE]
- protein stability index (treatment: DMSO): 3.9 ± 0.16
- protein stability index (treatment: MLN4924 1 uM, 8 h): 3.78 ± 0.15

Sequence: LYTPSNEHFGIVPLEAMYMQCPVI [ALG2]
- protein stability index (treatment: DMSO): 2.28 ± 0.098
- protein stability index (treatment: MLN4924 1 uM, 8 h): 2.39 ± 0.35

Sequence: LALCPANHAPLREQGAIPRLVQLL [CTNNB1]
- protein stability index (treatment: DMSO): 2.39 ± 0.21
- protein stability index (treatment: MLN4924 1 uM, 8 h): 2.59 ± 0.21

Sequence: TPAGLPPSRAKPPTEGAGSPAKAS [FBF1]
- protein stability index (treatment: DMSO): 5.38 ± 0.32
- protein stability index (treatment: MLN4924 1 uM, 8 h): 5.4 ± 0.1

Sequence: SVMYRKWKESKGKDREYTDIIRKQ [CDC34]
- protein stability index (treatment: DMSO): 3.52 ± 0.18
- protein stability index (treatment: MLN4924 1 uM, 8 h): 3.76 ± 0.25

Sequence: AEGLANGPDVLETDGLQEVPLCSC [EHMT1]
- protein stability index (treatment: DMSO): 4.75 ± 0.2
- protein stability index (treatment: MLN4924 1 uM, 8 h): 5 ± 0.31

Sequence: GPAAFVDYFERNWEPRRDMWVRFR [ZSWIM9]
- protein stability index (treatment: DMSO): 2.4 ± 0.12
- protein stability index (treatment: MLN4924 1 uM, 8 h): 2.46 ± 0.37

Sequence: NSDPEVVNVDNLLAAAVVQEHSNS [C18orf25]
- protein stability index (treatment: DMSO): 5.19 ± 0.35
- protein stability index (treatment: MLN4924 1 uM, 8 h): 5.33 ± 0.2

Sequence: SFFFPPVNLPISFFRKLLDCCQVS [NLN]
- protein stability index (treatment: DMSO): 2.23 ± 0.77
- protein stability index (treatment: MLN4924 1 uM, 8 h): 2.25 ± 0.5

Sequence: RTAFLWRGNVVLRAQMIRNEYRKL [TRIM43]
- protein stability index (treatment: DMSO): 2.66 ± 0.29
- protein stability index (treatment: MLN4924 1 uM, 8 h): 2.51 ± 0.29

Sequence: LALALKKCKPSLPAEAEGAAQELE [TMEM120A]
- protein stability index (treatment: DMSO): 4.39 ± 0.18
- protein stability index (treatment: MLN4924 1 uM, 8 h): 4.46 ± 0.19

Sequence: YQRVLPLPIFTPAKMGATKEERED [TCAP]
- protein stability index (treatment: DMSO): 3.01 ± 0.69
- protein stability index (treatment: MLN4924 1 uM, 8 h): 3.62 ± 0.78

Sequence: INGLQAWLLTHLLWFANAHLLSWF [DHCR7]
- protein stability index (treatment: DMSO): 3.18 ± 0.3
- protein stability index (treatment: MLN4924 1 uM, 8 h): 3.07 ± 0.44

Sequence: TLEQHLNTLEGKKPGNNEGSGAPS [SNAP91]
- protein stability index (treatment: DMSO): 4.81 ± 0.18
- protein stability index (treatment: MLN4924 1 uM, 8 h): 5.14 ± 0.08

Sequence: WSIPWKWLFGATAVALGGVALSVV [FKBP8]
- protein stability index (treatment: DMSO): 4.11 ± 0.43
- protein stability index (treatment: MLN4924 1 uM, 8 h): 3.98 ± 0.14

Sequence: IEKTGGVEAVKNELRRQAPPPPPP [WASL]
- protein stability index (treatment: DMSO): 4.492 ± 0.027
- protein stability index (treatment: MLN4924 1 uM, 8 h): 4.46 ± 0.58

Sequence: MHTNYLSACSFTNSDMQILTASGD [GNB5]
- protein stability index (treatment: DMSO): 2.99 ± 0.22
- protein stability index (treatment: MLN4924 1 uM, 8 h): 3.27 ± 0.26

Sequence: GKEVSGDQIEDMFEQGKWDVFSEN [STX11]
- protein stability index (treatment: DMSO): 4.33 ± 0.31
- protein stability index (treatment: MLN4924 1 uM, 8 h): 4.31 ± 0.35

Sequence: LEDMGQPPAEEAEQPGALAREFLA [FKBP8]
- protein stability index (treatment: DMSO): 5.15 ± 0.19
- protein stability index (treatment: MLN4924 1 uM, 8 h): 5.38 ± 0.2

Sequence: VEKSSPATSLFVELDEEEVKAATT [BCL2L13]
- protein stability index (treatment: DMSO): 5.53 ± 0.22
- protein stability index (treatment: MLN4924 1 uM, 8 h): 5.46 ± 0.2

Sequence: SGDFRSSTEDMERALSEYLAVFAR [P3H4]
- protein stability index (treatment: DMSO): 3.44 ± 0.23
- protein stability index (treatment: MLN4924 1 uM, 8 h): 4.11 ± 0.17

Sequence: RDLALVSRDGMNIVLNKINQILME [INTS3]
- protein stability index (treatment: DMSO): 2.58 ± 0.28
- protein stability index (treatment: MLN4924 1 uM, 8 h): 2.69 ± 0.67

Sequence: TVFDANDNAPVFTLPEYRVSVPEN [PCDHGA10]
- protein stability index (treatment: DMSO): 3.53 ± 0.11
- protein stability index (treatment: MLN4924 1 uM, 8 h): 3.86 ± 0.16

Sequence: WVCLAYFTSGFNAAALDYEADGST [SPACA3]
- protein stability index (treatment: DMSO): 2.9 ± 0.46
- protein stability index (treatment: MLN4924 1 uM, 8 h): 2.91 ± 0.25

Sequence: DAASVYTLPAGADFLMCYSVAEGY [CASP6]
- protein stability index (treatment: DMSO): 2.34 ± 0.22
- protein stability index (treatment: MLN4924 1 uM, 8 h): 2.33 ± 0.25

Source: the supplement of paper PMC10567573
